Experimental data taken from patent publication US20240376183A1.

Tests used:
Experiment in all cases: cell-based or functional assay
[1] = biological target: HIV-1 Env of pseudovirus strain 6545.v4.c1 (HIV-1)
[2] = biological target: HIV-1 Env protein of virus strain 89-F1_2_25 (HIV-1)
[3] = biological target: HIV-1 YU2 Env, wild type (YU2 pseudovirus) (HIV-1) (UniProt P35961)
HIV-1 YU2 Env, wild type (YU2 pseudovirus) (HIV-1), sequence (P35961 32-843 limits assumed): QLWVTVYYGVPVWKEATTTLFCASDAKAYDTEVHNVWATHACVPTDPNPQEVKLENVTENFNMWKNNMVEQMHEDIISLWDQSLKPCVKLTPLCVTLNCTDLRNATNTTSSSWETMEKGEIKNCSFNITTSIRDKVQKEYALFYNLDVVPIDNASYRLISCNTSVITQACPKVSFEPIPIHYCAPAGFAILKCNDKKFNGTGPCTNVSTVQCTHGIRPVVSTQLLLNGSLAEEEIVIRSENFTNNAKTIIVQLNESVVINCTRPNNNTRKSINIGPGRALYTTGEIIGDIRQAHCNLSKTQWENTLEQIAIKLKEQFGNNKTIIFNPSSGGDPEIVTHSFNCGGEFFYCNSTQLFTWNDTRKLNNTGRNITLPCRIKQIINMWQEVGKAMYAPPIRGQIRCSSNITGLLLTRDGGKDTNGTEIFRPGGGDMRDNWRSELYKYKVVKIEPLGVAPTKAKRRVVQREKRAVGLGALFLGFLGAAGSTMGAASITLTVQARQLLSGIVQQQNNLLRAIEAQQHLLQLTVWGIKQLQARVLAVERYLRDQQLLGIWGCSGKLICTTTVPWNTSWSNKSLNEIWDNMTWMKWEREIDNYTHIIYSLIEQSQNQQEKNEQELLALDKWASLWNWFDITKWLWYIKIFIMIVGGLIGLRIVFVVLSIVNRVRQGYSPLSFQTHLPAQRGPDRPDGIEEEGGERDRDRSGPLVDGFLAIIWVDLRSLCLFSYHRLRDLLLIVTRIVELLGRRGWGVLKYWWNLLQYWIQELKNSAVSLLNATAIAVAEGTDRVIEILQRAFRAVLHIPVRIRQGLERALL

Substance	IC50, TZM-bl pseudovirus neutralization assay [1] [µg/mL]	IC50, TZM-bl pseudovirus neutralization assay [2] [µg/mL]	IC50, TZM-bl cell neutralization assay [3] [µg/mL]
3BNC117 (antibody)	> 20	> 20	–
8ANC131 (antibody)	–	–	0.256
N6 (antibody)	16.2	> 20	–
VRC01 (antibody)	> 20	> 20	0.107
VRC07-523-LS (antibody)	> 20	–	–
